Results on 15 molecules are retold here after patent publication US20070032640A1, “Cytokine receptor” (priority 2001, published 2007).

Where a chain is given by its changes, count along the chain named. Bounds are passed on as bounds.

For assay [1], the target named is T1, soluble, recombinant IGF-1 receptor (Homo sapiens, UniProt P08069).
T1 construct: soluble, recombinant IGF-1 receptor
The experiment in a line: Solid phase receptor binding assay, IGF-1R/IGF-1 system (specificity). As to conditions: Eu-IGF-1 binding to IGF-1 receptor, FIG. 7B. As to the method:
(§1) Solid phase receptor binding assays. Ten compounds selected from Table 3 (NCI compounds) were tested for their ability to modulate the binding of europium-labelled IL-6 to soluble, recombinant IL-6 receptor (A) or the binding of europium-labelled IGF-1 to soluble, recombinant IGF-1 receptor (B) in a microplate-based format. Binding to the receptor is measured by time resolved fluorescence (TRF) as a % of control.
In order to examine specificity, the compounds were also assayed against the IGF receptor system in an identical manner.

Assay [2] addresses T2, human soluble interleukin 6 receptor α-chain (hsIL6Rα) and hsgp130 (Homo sapiens, UniProt P08887).
T2 construct: human soluble interleukin 6 receptor α-chain (hsIL6Rα)
T2 sequence (P08887 20-355 limits assumed): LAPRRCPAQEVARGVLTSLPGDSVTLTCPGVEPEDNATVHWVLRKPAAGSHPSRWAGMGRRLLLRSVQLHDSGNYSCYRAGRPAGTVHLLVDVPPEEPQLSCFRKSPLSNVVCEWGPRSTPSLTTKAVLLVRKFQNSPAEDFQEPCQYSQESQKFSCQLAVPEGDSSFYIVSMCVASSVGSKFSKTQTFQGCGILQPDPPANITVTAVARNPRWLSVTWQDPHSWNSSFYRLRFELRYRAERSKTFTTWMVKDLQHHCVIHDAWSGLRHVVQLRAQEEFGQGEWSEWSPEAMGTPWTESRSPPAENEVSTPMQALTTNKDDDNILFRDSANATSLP
The experiment in a line: High capacity screening assay: binding of europium-labelled human IL6 to hsIL6Rα and immobilised hsgp130. To be noted: Eu-IL-6 binding by time resolved fluorescence as % of control, FIG. 7A.
Description: Compounds designed according to the methods of the present invention may be assessed by a number of in vitro and in vivo assays of hormone function. For example, the identification of IL-6 receptor antagonists of may be undertaken using a solid-phase receptor binding assay. Potential antagonists may be screened for their ability to inhibit the binding of europium-labelled IL-6 receptor ligands to soluble, recombinant IL-6 receptor in a microplate-based format. Europium is a lanthanide fluorophore, the presence of which can be measured using time-resolved fluorometry. The sensitivity of this assay matches that achieved by radioisotopes, measurement is rapid and is performed in a microplate format to allow high-sample throughput, and the approach is gaining wide acceptance as the method of choice in the development of screens for receptor agonists/antagonists (see Apell et al., J. Biomolec. Screening 3:19-27, 1998: Inglese et al., Biochemistry 37:2372-2377, 1998).
as §1
Ten of the compounds listed in Table 3 were tested for their ability to modulate binding of IL-6 to IL-6R/gp130. The high throughput screening assay used for this purpose detects the binding of europium-labelled human IL6 (Eu-hIL6) to human soluble interleukin 6 receptor α-chain (hsIL6Rα) and hsgp130 immobilised on the surface of wells of a microtitre plate. The protocol followed was essentially as follows: […]
The fractions were assayed for europium by diluting 10,000-fold in 200 μL of DELFIA enhancement solution and measuring europium fluorescence. […] The concentration of Eu-IL6 was determined from the absorbance at 280 nm (0.5 AU/mg/mL) and the labelling stoichiometry based on a molecular mass of 21,300. […]

For a further assay, the target named is T3, IL-6R (Homo sapiens, UniProt P08887).
T3 construct: endogenous in cells; host or cells: human myeloma U266 cells
T3 sequence (P08887 20-468): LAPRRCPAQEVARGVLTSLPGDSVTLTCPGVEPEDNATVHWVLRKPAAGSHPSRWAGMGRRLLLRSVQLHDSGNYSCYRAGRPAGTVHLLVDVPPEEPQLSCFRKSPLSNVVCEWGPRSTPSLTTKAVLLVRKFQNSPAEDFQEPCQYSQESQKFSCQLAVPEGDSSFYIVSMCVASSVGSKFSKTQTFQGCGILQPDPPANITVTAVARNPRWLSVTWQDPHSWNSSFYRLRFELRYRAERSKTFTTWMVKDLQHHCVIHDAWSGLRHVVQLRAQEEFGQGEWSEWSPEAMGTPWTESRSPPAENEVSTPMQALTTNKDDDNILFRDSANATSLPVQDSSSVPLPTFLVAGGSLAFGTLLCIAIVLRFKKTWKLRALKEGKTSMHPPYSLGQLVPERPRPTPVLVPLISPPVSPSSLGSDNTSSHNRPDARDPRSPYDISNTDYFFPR
To be noted: human myeloma U266 cells, low-affinity binding; cited from earlier work.

In the next assay the test system is IL-6. To be noted: cited from earlier work; for Binding: IL-6 binding of IL-6R mutant, relative to wild type.
The test system of the next assay is gp130 signalling. To be noted: cited from earlier work; for Signalling: gp130 signalling of IL-6R mutant, relative to wild type.

T1 sequence (P08069 31-736): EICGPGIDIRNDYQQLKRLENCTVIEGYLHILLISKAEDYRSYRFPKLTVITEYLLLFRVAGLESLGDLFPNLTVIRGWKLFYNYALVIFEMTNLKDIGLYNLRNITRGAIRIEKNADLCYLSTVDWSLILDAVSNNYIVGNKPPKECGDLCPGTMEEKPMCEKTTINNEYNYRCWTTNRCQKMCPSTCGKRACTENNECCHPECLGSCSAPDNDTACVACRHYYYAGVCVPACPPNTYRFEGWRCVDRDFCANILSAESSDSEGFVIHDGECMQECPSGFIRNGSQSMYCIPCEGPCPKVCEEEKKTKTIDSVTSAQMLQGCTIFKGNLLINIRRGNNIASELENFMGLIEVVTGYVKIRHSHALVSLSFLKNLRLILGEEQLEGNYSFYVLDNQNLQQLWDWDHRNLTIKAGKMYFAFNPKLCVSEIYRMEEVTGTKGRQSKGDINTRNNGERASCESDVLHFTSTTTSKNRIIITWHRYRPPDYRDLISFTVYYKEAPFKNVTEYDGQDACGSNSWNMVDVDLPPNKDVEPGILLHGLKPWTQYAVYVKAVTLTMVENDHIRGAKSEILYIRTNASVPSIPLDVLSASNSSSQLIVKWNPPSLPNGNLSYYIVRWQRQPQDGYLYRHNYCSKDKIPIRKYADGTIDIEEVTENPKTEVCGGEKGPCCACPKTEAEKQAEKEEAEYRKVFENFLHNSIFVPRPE
T1 sequence (P08069 741-935): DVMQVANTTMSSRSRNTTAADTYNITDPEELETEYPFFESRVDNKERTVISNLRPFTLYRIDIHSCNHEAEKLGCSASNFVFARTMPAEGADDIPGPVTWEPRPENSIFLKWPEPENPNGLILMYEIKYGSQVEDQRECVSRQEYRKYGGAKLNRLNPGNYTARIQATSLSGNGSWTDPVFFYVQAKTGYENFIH

Turning to `O=C(C[n+]1ccc2ccccc2c1)c1ccc(-c2ccccc2)cc1` [compound 17791, 1-[1,1′-biphenyl]-4-yl-2-(2^5-isoquinolin-2-yl)ethanone], in assay [1], the “specificity against the IGF-1R/IGF-1 system” value is listed as “specifically”. The “effect on IL-6 binding to IL-6R/gp130 (antagonist or agonist)” value in assay [2] was “agonists”.
Taken in the same sequence, the figures for `Nc1c(C(=O)Nc2ccc3c(c2)C(=O)c2ccccc2C3=O)ccc2c1C(=O)c1ccccc1C2=O` [compound 39914, 1-amino-N-(9,10-dioxo-9,10-dihydro-2-anthracenyl)-9,10-dioxo-9,10-dihydro-2-anthracenecarboxamide] were “specifically” and “antagonist”.
Consider `O=C(O)c1ccccc1C(=O)Nc1cc2c(cc1Br)-c1ccccc1C2=O` [compound 56681, 2-(((3-bromo-9-oxo-9H-fluoren-2-yl)amino)carbonyl)benzoic acid], for which the “specificity against the IGF-1R/IGF-1 system” value in assay [1] is “specifically”. Moreover, in assay [2], the “effect on IL-6 binding to IL-6R/gp130 (antagonist or agonist)” value is given as “agonists”.
In the case of “IL-6: multifunctional cytokine, natural ligand of the IL-6 receptor”, in the assay with IL-6R, the Kd is roughly 1 nM.

B1: C192: IL-6R with C192 mutated to alanine (protein, UniProt P08887 20-468, looked up, variant C192A)
Interleukin-6 receptor …: T3 sequence (P08887 20-468) with C192A
Turning to B1, the “binding of IL-6 to IL-6R (in words)” value with IL-6 (mutated to alanine) is given as “slightly increased”. The “signalling (in words)” value in the assay on gp130 signalling (mutated to alanine) was “slightly increased”.

B2: E278: IL-6R EF-AI double mutant at E278 and F279 (protein, UniProt P08887 20-468, looked up, variant E278A F279I)
Interleukin-6 receptor …: T3 sequence (P08887 20-468) with E278A, F279I
With B2, the Binding in the assay with IL-6 was 0%.

B3: F134: IL-6R F-L mutation at F134 (protein, UniProt P08887 20-468, looked up, variant F134L)
Interleukin-6 receptor …: T3 sequence (P08887 20-468) with F134L
Take B3: in the assay on IL-6, the Binding is on record as greater than 100%. For the same molecule, in the assay with gp130 signalling, the Signalling is 70%.

B4: V259: IL-6R V-N mutant at V259 (protein, UniProt P08887 20-468, looked up, variant V259N)
Interleukin-6 receptor …: T3 sequence (P08887 20-468) with V259N
Regarding B4, the Binding in the assay with IL-6 is reported as 40%. Further, the Signalling with gp130 signalling is 140%.

B5: I260: IL-6R I-D mutation at I260 (protein, UniProt P08887 20-468, looked up, variant I260D)
Interleukin-6 receptor …: T3 sequence (P08887 20-468) with I260D
Turning to B5, the Binding in the assay with IL-6 is on record as 0%.

B6: W214: IL-6R W-Q mutant at W214 (protein, UniProt P08887 20-468, looked up, variant W214Q)
Interleukin-6 receptor …: T3 sequence (P08887 20-468) with W214Q
Turning to B6, the Binding in the assay on IL-6 is on record as 70%. In the assay on gp130 signalling, the Signalling is greater than 150%.

B7: R231: IL-6R RL-SI double mutant at R231 and L232 (protein, UniProt P08887 20-468, looked up, variant R231S L232I)
Interleukin-6 receptor …: T3 sequence (P08887 20-468) with R231S, L232I
In the case of B7, in the assay on IL-6, the Binding is 0%.

B8: H261: IL-6R H-I mutation at H261 (protein, UniProt P08887 20-468, looked up, variant H261I)
Interleukin-6 receptor …: T3 sequence (P08887 20-468) with H261I
In the case of B8, the Binding in the assay with IL-6 is 115%. Besides, in the assay on gp130 signalling, the Signalling is 10%.

B9: P162: IL-6R PE-LQ double mutant at P162 and E163, loop L3 (protein, UniProt P08887 20-468, looked up, variant P162L E163Q)
Interleukin-6 receptor …: T3 sequence (P08887 20-468) with P162L, E163Q
Turning to B9, in the assay on IL-6, the Binding is given as less than 10%.

B10: D262: IL-6R D-G mutant at D262 (protein, UniProt P08887 20-468, looked up, variant D262G)
Interleukin-6 receptor …: T3 sequence (P08887 20-468) with D262G
Turning to B10, the Binding with IL-6 was 30%. In addition, the Signalling in the assay on gp130 signalling is less than 10%.

B11: F-Y mutant: IL-6R F-Y mutant at F168 (protein, UniProt P08887 20-468, looked up, variant F168Y)
Interleukin-6 receptor …: T3 sequence (P08887 20-468) with F168Y
Take B11: the Signalling entry with gp130 signalling is “mutant signals at 50%”.

By Kd is commonly meant the free concentration of one partner at which half of the binding sites on the other are occupied at equilibrium, for simple one-to-one binding.
